Columns and labels:
[1] = target: T1, His-tagged ILT4 protein extracellular domain: ILT4-His (human, UniProt Q8N423 22-460); experiment: ELISA, coated ILT4-His 1 µg/mL; Assay 1
T1 construct: Expressed in 293 cells; also called human ILT4-His protein

[2] = target: T1, His-tagged ILT4 protein extracellular …; experiment: ELISA, coated ILT4-His 1 µg/mL; Assay 2
[3] = target: T1, His-tagged ILT4 protein extracellular …; experiment: ELISA, coated ILT4-His 1 µg/mL; Assay 3
[4] = target: T1, His-tagged ILT4 protein extracellular …; experiment: ELISA, coated ILT4-His 1 µg/mL; Assay 4
[5] = target: T1, His-tagged ILT4 protein extracellular …; experiment: ELISA, coated ILT4-His 1 µg/mL; Assay 5
[6] = target: T2, full-length human ILT4 protein overexpressed on cells (human, UniProt Q8N423 22-597); experiment: flow cytometry competition on CHO-S/ILT4 cells; competitor CF647-labelled HLA-G tetramer; Assay 1
T2 construct: also called CHO-S/ILT4; ILT4 stably transfected cell strain

[7] = target: T2, full-length human ILT4 protein …; experiment: flow cytometry competition on CHO-S/ILT4 cells; competitor CF647-labelled HLA-G tetramer; Assay 2
[8] = target: T2, full-length human ILT4 protein …; experiment: flow cytometry competition on CHO-S/ILT4 cells; competitor CF647-labelled HLA-G tetramer; Assay 3
[9] = target: T2, full-length human ILT4 protein …; experiment: flow cytometry competition on CHO-S/ILT4 cells; competitor CF647-labelled HLA-G tetramer; Assay 4
[10] = target: T3, LILRA5-His (Acro, LI5-H82E1) (human, UniProt A6NI73 42-268); experiment: ELISA, coated protein 1 µg/mL
T3 construct: Bought protein. 'Human' stands at the head of the list of coated proteins; not shown: His tag

[11] = target: T4, LILRA6-His (Acro, LI6-H82E2) (human, UniProt Q6PI73 24-447); experiment: ELISA, coated protein 1 µg/mL
T4 construct: Bought protein. 'Human' stands at the head of the list of coated proteins; not shown: His tag

[12] = target: T5, His-tagged ILT2 protein extracellular domain: ILT2-His (human, UniProt Q8NHL6 24-461); experiment: ELISA, coated protein 1 µg/mL
T5 construct: The entry is the whole construct, with the His tag; also called human ILT2 protein

[13] = target: T6, His-tagged ILT3 protein extracellular domain: ILT3-His (human, UniProt Q8NHJ6 22-259); experiment: ELISA, coated protein 1 µg/mL
T6 construct: The entry is the whole construct, with the His tag

[14] = target: T7, LILRB5-His (Acro, CDC-H5220) (human, UniProt O75023 24-458, limits assumed); experiment: ELISA, coated protein 1 µg/mL
T7 construct: Bought protein. 'Human' stands at the head of the list of coated proteins; not shown: His tag

[15] = target: T8, LILRA1-His (Acro, LI1-H82E8) (human, UniProt O75019 17-461); experiment: ELISA, coated protein 1 µg/mL
T8 construct: Bought protein. 'Human' stands at the head of the list of coated proteins; not shown: His tag

[16] = target: T9, LILRA2-His (Acro, LI2-H82E9) (human, UniProt Q8N149 24-449); experiment: ELISA, coated protein 1 µg/mL
T9 construct: Bought protein. 'Human' stands at the head of the list of coated proteins; not shown: His tag

[17] = target: T10, LILRA3-His (Acro, LI3-H82E0) (human, UniProt Q8N6C8 24-439); experiment: ELISA, coated protein 1 µg/mL
T10 construct: Bought protein. 'Human' stands at the head of the list of coated proteins; not shown: His tag

[18] = target: T11, LILRA4-His (SinoBiological, 16058-H08H) (human, UniProt P59901 24-446); experiment: ELISA, coated protein 1 µg/mL
T11 construct: Bought protein. 'Human' stands at the head of the list of coated proteins; not shown: His tag

[19] = target: T1, His-tagged ILT4 protein extracellular …; experiment: ELISA, coated protein 1 µg/mL, antibody 10 µg/mL
[20] = target: T3, LILRA5-His (Acro, LI5-H82E1); experiment: ELISA, coated protein 1 µg/mL, antibody 10 µg/mL
[21] = target: T4, LILRA6-His (Acro, LI6-H82E2); experiment: ELISA, coated protein 1 µg/mL, antibody 10 µg/mL
[22] = target: T5, His-tagged ILT2 protein extracellular …; experiment: ELISA, coated protein 1 µg/mL, antibody 10 µg/mL
[23] = target: T6, His-tagged ILT3 protein extracellular …; experiment: ELISA, coated protein 1 µg/mL, antibody 10 µg/mL
[24] = target: T7, LILRB5-His (Acro, CDC-H5220); experiment: ELISA, coated protein 1 µg/mL, antibody 10 µg/mL
[25] = target: T8, LILRA1-His (Acro, LI1-H82E8); experiment: ELISA, coated protein 1 µg/mL, antibody 10 µg/mL
[26] = target: T9, LILRA2-His (Acro, LI2-H82E9); experiment: ELISA, coated protein 1 µg/mL, antibody 10 µg/mL
[27] = target: T10, LILRA3-His (Acro, LI3-H82E0); experiment: ELISA, coated protein 1 µg/mL, antibody 10 µg/mL
[28] = target: T11, LILRA4-His (SinoBiological, 16058-H08H); experiment: ELISA, coated protein 1 µg/mL, antibody 10 µg/mL
[29] = target: T2, full-length human ILT4 protein …; experiment: flow cytometry (FACS) on CHO-S/ILT4 cells; Assay 1
[30] = target: T1, His-tagged ILT4 protein extracellular …; experiment: SPR (Biacore), antibody captured on Protein A chip, ILT4-His as analyte, 1:1 model
[31] = target: T1, His-tagged ILT4 protein extracellular …; experiment: phage ELISA
[32] = target: T5, His-tagged ILT2 protein extracellular …; experiment: phage ELISA

T1 sequence (Q8N423 other isoform, or with tags, fused parts or gaps limits assumed): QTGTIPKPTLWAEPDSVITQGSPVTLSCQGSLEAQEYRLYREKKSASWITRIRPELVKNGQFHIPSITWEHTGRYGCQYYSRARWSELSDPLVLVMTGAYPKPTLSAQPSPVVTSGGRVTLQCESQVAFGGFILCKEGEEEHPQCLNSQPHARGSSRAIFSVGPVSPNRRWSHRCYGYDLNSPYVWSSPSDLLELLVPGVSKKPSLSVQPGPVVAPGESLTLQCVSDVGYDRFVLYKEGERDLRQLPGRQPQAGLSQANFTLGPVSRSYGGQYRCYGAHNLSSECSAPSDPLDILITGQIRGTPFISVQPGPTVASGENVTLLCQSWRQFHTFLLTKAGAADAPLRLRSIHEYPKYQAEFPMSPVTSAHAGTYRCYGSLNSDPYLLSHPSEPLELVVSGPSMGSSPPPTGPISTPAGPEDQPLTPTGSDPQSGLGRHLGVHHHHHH
T5 sequence (Q8NHL6 other isoform, or with tags, fused parts or gaps): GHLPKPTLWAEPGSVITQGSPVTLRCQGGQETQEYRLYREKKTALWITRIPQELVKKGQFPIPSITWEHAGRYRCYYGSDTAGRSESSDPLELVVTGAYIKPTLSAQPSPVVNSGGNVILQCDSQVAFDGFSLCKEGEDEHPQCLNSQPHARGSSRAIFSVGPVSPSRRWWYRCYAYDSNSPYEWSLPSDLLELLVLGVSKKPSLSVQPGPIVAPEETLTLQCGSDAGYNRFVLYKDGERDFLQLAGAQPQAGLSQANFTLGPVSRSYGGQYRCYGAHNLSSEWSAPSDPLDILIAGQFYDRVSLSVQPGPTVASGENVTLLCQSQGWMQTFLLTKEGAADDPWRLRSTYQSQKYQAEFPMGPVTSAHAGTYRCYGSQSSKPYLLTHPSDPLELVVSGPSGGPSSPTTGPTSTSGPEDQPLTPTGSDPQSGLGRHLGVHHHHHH
T2 sequence (Q8N423 other isoform, or with tags, fused parts or gaps limits assumed): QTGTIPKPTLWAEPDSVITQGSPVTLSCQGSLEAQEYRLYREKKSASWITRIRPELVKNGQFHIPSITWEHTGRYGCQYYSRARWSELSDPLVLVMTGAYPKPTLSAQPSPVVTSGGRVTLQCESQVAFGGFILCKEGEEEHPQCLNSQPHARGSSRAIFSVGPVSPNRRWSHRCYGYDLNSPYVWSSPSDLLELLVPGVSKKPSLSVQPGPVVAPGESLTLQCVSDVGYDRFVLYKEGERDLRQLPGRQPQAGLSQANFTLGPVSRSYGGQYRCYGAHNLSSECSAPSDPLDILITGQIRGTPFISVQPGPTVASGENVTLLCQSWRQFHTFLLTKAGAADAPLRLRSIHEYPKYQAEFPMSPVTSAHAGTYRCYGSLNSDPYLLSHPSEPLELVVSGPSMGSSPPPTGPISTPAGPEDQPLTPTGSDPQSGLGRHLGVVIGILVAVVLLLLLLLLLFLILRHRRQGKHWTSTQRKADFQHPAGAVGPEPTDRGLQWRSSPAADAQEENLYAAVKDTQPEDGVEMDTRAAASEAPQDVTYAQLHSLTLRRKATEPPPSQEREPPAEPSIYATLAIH
T11 sequence (P59901 24-446 limits assumed): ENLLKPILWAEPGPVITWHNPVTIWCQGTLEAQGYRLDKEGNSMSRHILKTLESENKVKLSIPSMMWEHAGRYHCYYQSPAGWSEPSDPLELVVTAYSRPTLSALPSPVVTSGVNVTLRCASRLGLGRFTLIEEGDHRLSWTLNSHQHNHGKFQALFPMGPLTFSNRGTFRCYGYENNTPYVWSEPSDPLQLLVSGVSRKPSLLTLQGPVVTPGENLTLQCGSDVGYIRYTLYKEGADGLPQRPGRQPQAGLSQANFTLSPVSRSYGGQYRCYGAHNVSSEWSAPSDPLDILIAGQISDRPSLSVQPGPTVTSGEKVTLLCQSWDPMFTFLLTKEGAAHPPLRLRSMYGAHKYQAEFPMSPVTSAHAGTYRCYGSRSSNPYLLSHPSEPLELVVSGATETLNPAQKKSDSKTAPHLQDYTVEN
T9 sequence (Q8N149 24-449 limits assumed): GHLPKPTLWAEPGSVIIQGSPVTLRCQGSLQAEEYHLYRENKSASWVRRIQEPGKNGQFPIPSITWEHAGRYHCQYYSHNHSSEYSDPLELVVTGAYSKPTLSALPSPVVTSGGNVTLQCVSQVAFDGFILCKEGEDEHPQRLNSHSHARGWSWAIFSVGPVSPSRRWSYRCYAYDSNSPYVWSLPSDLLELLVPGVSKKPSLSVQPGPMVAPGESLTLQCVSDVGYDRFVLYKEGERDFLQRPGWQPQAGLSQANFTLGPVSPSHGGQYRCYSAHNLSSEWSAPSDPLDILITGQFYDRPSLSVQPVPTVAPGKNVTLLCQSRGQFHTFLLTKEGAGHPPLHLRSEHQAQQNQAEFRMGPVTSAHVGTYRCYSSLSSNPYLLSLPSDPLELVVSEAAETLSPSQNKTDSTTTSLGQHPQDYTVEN
T10 sequence (Q8N6C8 24-439 limits assumed): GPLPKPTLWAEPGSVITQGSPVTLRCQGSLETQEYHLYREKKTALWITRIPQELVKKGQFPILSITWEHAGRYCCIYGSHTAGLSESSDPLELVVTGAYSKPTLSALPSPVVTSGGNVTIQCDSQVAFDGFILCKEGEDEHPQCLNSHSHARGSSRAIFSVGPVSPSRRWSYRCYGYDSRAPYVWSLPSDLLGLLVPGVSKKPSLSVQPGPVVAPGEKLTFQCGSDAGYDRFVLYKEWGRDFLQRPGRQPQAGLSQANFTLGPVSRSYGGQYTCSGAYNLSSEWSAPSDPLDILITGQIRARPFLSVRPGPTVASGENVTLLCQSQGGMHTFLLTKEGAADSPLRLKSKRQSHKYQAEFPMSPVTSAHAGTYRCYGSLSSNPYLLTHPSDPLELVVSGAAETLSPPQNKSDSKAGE
T4 sequence (Q6PI73 24-447 limits assumed): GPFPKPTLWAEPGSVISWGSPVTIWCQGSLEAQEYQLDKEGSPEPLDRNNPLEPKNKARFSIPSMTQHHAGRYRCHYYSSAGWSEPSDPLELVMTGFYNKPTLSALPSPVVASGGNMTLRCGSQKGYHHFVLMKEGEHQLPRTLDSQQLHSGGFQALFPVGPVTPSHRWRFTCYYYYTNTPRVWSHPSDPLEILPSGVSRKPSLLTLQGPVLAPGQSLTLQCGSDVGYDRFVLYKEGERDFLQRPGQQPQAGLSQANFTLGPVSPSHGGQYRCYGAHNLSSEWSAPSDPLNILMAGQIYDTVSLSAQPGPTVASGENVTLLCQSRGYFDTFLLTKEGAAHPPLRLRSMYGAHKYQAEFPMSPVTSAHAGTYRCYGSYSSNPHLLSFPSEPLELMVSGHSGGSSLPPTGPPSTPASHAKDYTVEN
T7 sequence (O75023 24-458 limits assumed): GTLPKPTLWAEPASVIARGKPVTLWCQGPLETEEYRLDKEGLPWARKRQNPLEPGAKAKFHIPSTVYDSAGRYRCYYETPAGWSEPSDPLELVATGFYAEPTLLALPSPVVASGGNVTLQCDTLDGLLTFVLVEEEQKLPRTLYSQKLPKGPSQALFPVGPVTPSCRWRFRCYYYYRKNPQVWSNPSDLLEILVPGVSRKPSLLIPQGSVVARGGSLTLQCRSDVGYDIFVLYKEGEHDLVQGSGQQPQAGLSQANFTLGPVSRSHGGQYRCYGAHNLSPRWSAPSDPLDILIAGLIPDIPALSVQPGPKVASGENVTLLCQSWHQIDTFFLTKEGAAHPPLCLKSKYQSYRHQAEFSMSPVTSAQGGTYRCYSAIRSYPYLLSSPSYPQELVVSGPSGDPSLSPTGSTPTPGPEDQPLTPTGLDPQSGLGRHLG
T3 sequence (A6NI73 42-268 limits assumed): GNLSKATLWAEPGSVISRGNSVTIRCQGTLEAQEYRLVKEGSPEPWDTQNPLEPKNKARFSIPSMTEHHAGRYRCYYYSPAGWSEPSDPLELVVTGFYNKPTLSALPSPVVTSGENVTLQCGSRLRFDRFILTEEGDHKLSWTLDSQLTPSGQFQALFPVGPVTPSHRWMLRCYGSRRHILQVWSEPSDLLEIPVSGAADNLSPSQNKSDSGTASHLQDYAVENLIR
T8 sequence (O75019 17-461 limits assumed): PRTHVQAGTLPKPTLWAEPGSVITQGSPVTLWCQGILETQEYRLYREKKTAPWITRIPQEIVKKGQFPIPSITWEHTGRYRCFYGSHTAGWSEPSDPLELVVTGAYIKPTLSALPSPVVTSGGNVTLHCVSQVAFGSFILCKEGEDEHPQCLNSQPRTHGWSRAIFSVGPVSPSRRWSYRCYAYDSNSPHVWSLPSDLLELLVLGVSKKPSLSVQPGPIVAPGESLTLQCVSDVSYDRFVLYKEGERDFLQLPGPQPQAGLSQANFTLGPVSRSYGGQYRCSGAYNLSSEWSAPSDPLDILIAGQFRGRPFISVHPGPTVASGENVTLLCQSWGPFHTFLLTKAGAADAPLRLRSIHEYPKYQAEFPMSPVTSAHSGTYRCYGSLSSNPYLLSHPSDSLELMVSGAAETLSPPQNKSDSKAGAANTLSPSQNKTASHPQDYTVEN

B1: positive control antibody JTX (sequences from WO2019126514A2) (antibody, human IgG4 S228P, kappa, V domains shown)
VH: QITLKESGPTLVKPTQTLTLTCTFSGFSLNTYAMGVSWIRQPPGKALEWLASIWWNGNKYNNPSLKSRLTVTKDTSKNQVVLTMTNMDPVDTATYYCAHSRIIRFTDYVMDAWGQGTLVTVSS
VL: DIQMTQSPSSLSTSVGDRVTITCRASEDIYNDLAWYQQKPGKAPKLLIYNANSLHTGVASRFSGSGSGTDFTFTISSLQPEDVATYFCQQYYDYPLTFGQGTKLEIKR
notes: also called JTX-8064
EC50 [1]: 0.0826 mg/L | EC50 [2]: 0.0826 mg/L | Top [2]: 1.7 absorbance at 450 nm | EC50 [3]: 0.0293 mg/L | EC50 [4]: 0.083 mg/L | EC50 [5]: 0.0801 mg/L | Top [5]: 1.14 absorbance at 450 nm | IC50 [6]: 0.022 mg/L | IC50 [7]: 0.12 mg/L | IC50 [8]: 0.12 mg/L | IC50 [9]: 0.061 mg/L

B2: humanized antibody huP2-E3 (antibody, human IgG4 S228P, kappa, F234A L235A, V domains shown)
VH: EVQLVQSGAEVKKPGASVKVSCKASGYTFTDYYMNWVKQAPGQRLEWMGDINPNSGGTSYNQKFKGRVTITVDKSGSTAYMELSSLRSEDTAVYYCARGGVTTVVATYWYFDVWGQGTTVTVSS
VL: DIQMTQSPSSLSASVGDRVTITCRASENIYSNLAWYQQKPGKSPKLLVYAATNVADGVPSRFSGSGSGTDYTLTISSLQPEDFATYYCQQFWDTPFTFGQGTKLEIKR
notes: Full chains; The constant region is hIgG1(LALA) or hIgG4(LALA) with a kappa CL; also called P2-E3H6L2
binding result [10]: no binding (tested: 10 µg/mL) | binding result [11]: no binding (tested: 10 µg/mL) | binding result [12]: no binding (tested: 10 µg/mL) | binding result [13]: no binding (tested: 10 µg/mL) | binding result [14]: no binding (tested: 10 µg/mL) | binding result [15]: no binding (tested: 10 µg/mL) | binding result [16]: no binding (tested: 10 µg/mL) | binding result [17]: no binding (tested: 10 µg/mL) | binding result [18]: no binding (tested: 10 µg/mL) | absorbance at 450 nm [19]: 1.04 absorbance at 450 nm | absorbance at 450 nm [20]: 0.0466 absorbance at 450 nm | absorbance at 450 nm [21]: 0.047 absorbance at 450 nm | absorbance at 450 nm [22]: 0.0541 absorbance at 450 nm | absorbance at 450 nm [23]: 0.0699 absorbance at 450 nm | absorbance at 450 nm [24]: 0.0523 absorbance at 450 nm | absorbance at 450 nm [25]: 0.0532 absorbance at 450 nm | absorbance at 450 nm [26]: 0.055 absorbance at 450 nm | absorbance at 450 nm [27]: 0.0476 absorbance at 450 nm | absorbance at 450 nm [28]: 0.0605 absorbance at 450 nm | EC50 [29]: 0.0307 mg/L | Kd [30]: 0.00126 µM | koff [30]: 0.00127 s⁻¹ | kon [30]: 1.01e+06 M⁻¹ s⁻¹ | IC50 [6]: 0.012 mg/L

B3: positive control antibody MK (sequences from WO2018187518A1) (antibody, human IgG4 S228P, lambda, V domains shown)
VH: EVQLQQWGAGLLKPSETLSLTCAVYGGSFSGYYWSWIRQPPGKGLEWIGEINHAGSTNYNPSLKSRVTISVDTSKNQFSLKLSSVTAADTAVYYCARLPTRWVTTRYFDLWGRGTLVTVSS
VL: ESVLTQPPSVSGAPGQRVTISCTGSSSNIGAGYDVHWYQQLPGTAPKLLIYGDSNRPSGVPDRFSVSKSGASASLAITGLQAEDEADYYCQSFDNSLSAYVFGGGTQLTVLG
EC50 [29]: 0.031 mg/L | Kd [30]: 0.0191 µM | koff [30]: 0.00863 s⁻¹ | kon [30]: 452000 M⁻¹ s⁻¹ | IC50 [6]: 0.031 mg/L | IC50 [7]: 0.138 mg/L | IC50 [8]: 0.138 mg/L | IC50 [9]: 0.092 mg/L

B4: P2 (fully human-derived antibody clone from phage library screening) (antibody, V domains shown)
VH: QVQLVQSGAEVKKPGSSVKVSCKASGYTFTSYDISWVRQAPGQGLEWMGGIIPIFGTANYAQKFQGRVTITADESTSTAYMELSSLRSEDTAVYYCTAGIFLATAYWGQGTLVTVSS
VL: DIQMTQSPSSMSASVGDRVTISCQASQDINNYLNWYQQRPGQAPKLLIYDASTLETGVPSRFSGSGSGTYFTLTITSLQPADVATYYCQQYENVPITFGQGTRLEIK
binding result [31]: binds | binding result [32]: no binding

B5: chimeric antibody ChP1-E11 (antibody, human IgG4 S228P, kappa, F234A L235A, V domains shown)
VH: EVQLQQSGPELVKPGASVKMSCQASGYTFTDYSIHWVKQSRGASLEWIGYINPNNGVTNYNQKFKGKATLTVNKSSSTAYMELRSLTSEDSAVYYCAREGDSVTTIVVHWYFDVGGTGTTVTVSS
VL: DIQMTQSPASLSVSLGETVTITCRASENIYSNLVWYQQKQGKFPQLLVYAAINLVDGVPSRFSGSGSGTQYSLKINSLQSEDFGSYYCQQFWDTPLTFGAGTKLEIKR
notes: Murine variable regions with hIgG4(LALA) and CL constant regions; also called M P1-E11
EC50 [4]: 0.041 mg/L

— EP4585618A1 (Jiangsu Hengrui Pharmaceuticals Co., Ltd., dated 2025)
